In patent US20260116920A1 (PEPTIDREAM, published 2026):
Starred links: 1 amine or outer side, 2 acyl side, 3 side chain; linkers in the order of their positions; H or OH if unused. Positions of bridges follow the written chain, without caps; N, C: chain ends. Non-standard residues stand in square brackets, D forms with d. Primed or numbered codes have the meaning given here. No end group written: not given here. E(PEG8Me) = (S)-30-amino-27-oxo-2,5,8,11,14,17,20,23-octaoxa-26-azahentriacontane-31-oic acid, COCCOCCOCCOCCOCCOCCOCCOCCNC(=O)CC[C@H](N[*:1])C(=O)[*:2]; E(PEG4Me) = (S)-18-amino-15-oxo-2,5,8,11-tetraoxa-14-azanonadecane-19-oic acid, COCCOCCOCCOCCNC(=O)CC[C@H](N[*:1])C(=O)[*:2]; Phe(4-OMe)(3) = (S)-2-amino-3-(4-methoxyphenyl)propanoic acid (source code F4OMe), COc1ccc(C[C@H](N[*:1])C(=O)[*:2])cc1; F4aao = (S)-2-amino-3-(4-(carboxymethoxy)phenyl)propanoic acid, O=C([C@H](Cc1ccc(OCC(=O)[*:3])cc1)N[*:1])[*:2]; Phe(4-OMe)″ = (S)-2-amino-3-(4-methoxyphenyl)propanoic acid (F4OMe), COc1ccc(C[C@H](N[*:1])C(=O)[*:2])cc1; Phe(4-OMe) = F4OMe = (S)-2-amino-3-(4-methoxyphenyl)propanoic acid, COc1ccc(C[C@H](N[*:1])C(=O)[*:2])cc1; E(NHdPEG1Me) = N5-(1,3-dimethoxypropan-2-yl)-L-glutamine, COCC(COC)NC(=O)CC[C@H](N[*:1])C(=O)[*:2]; Trp(1-CH2CO) = O=C([C@H](Cc1cn(CC(=O)[*:3])c2ccccc12)N[*:1])[*:2]; Ala(1-CH2CO2H-4-piperidyl) = N[C@@H](CC1CCN(CC(=O)O)CC1)C(=O)O; Trp(5-Cl) = N[C@@H](Cc1c[nH]c2ccc(Cl)cc12)C(=O)O; Nle(6-morpholino) = N[C@@H](CCCCN1CCOCC1)C(=O)O; Phe(3-COOH) = N[C@@H](Cc1cccc(C(=O)O)c1)C(=O)O; NMePhe(3-Cl) = CN[C@@H](Cc1cccc(Cl)c1)C(=O)O; NMePhe(4-F) = CN[C@@H](Cc1ccc(F)cc1)C(=O)O; PEG8 = NCCOCCOCCOCCOCCOCCOCCOCCOCCC(=O)O; Lys(N3) = [N-]=[N+]=NCCCC[C@H](N)C(=O)O; NMeY = CN[C@@H](Cc1ccc(O)cc1)C(=O)O; NMeR = CN[C@@H](CCCNC(=N)N)C(=O)O; NMeF = CN[C@@H](Cc1ccccc1)C(=O)O; 3Pal = N[C@@H](Cc1cccnc1)C(=O)O; 4Pal = N[C@@H](Cc1ccncc1)C(=O)O

What was measured:
[1] = target: T1, human transferrin receptor (hTfR) (human, UniProt P02786 89-760); test: SPR; A = KD <1 nM
T1 construct: used as 0.5 uM hTfR dimer solution, immobilised on an NTA sensor chip (Ni capture plus EDC/NHS coupling); also called human TfR; TfR1
Description: (§1) NTA sensor chip (Global Life Sciences Technologies Japan K.K.) was inserted into BiacoreT200 (Global Life Sciences Technologies Japan K.K.), then the priming operation was performed three times by using running buffer containing: 10 mM HEPES pH 8.0 (Nacalai Tesque, Inc.), 150 mM NaCl (Nacalai Tesque, Inc.), 0.05% Tween 20 (Nacalai Tesque, Inc.), 0.1% BSA (SIGMA-ALDRICH) and 1.0% DMSO (FUJIFILM Wako Pure Chemical Corporation), and equilibrated at a flow rate of 30 μL/min. 350 mM EDTA solution was reacted at a flow rate of 10 μL/min for 60 seconds, 0.5 mM […] solution (Kishida Chemical Co., Ltd.) was reacted at a flow rate of 10 μL/min for 60 seconds, and then the NTA sensor chip was washed with 3 mM EDTA solution (Nacalai Tesque, Inc.) at a flow rate of 10 μL/min for 60 seconds. After mixing 50 μL each of 60 mM EDC solution (Global Life Science Technologies Japan K.K.) and 650 mM NHS solution (Global Life Science Technologies Japan K.K.), the reaction was carried out at a flow rate of 10 μL/min for 420 seconds. 150 μL of 0.5 μM hTfR dimer solution was prepared by dilution with running buffer and reacted at a flow rate of 10 μL/min for 300 seconds to immobilize hTfR on the NTA sensor chip. For the human transferrin receptor (hTfR), recombinant hTfR described in Example 2 of WO2018/124121 was used. After immobilization, capping was performed by reacting with 1.0 M ethanolamine solution (Global Life Sciences Technologies Japan K.K.) at a flow rate of 10 μL/min for 420 seconds. Peptide lysate prepared in DMSO solution to 10 mM was diluted with running buffer to be a final concentration of 10 μM peptide lysate, then peptide solutions of 100 nM, 50 nM, 25 nM, 10 nM, and 5 nM were prepared. Using the above samples, the kinetics of the peptide against hTfR was obtained by SPR measurement.
(§2) The kinetic evaluation model was single-cycle kinetics, and curve fitting was performed using Biacore T200 Evaluation Software Version 3.0 (Global Life Science Technologies Japan K.K.). The binding of the peptide to hTfR was evaluated by performing curve fitting on the obtained sensorgram by least squares method and obtaining the KD value.

[2] = target: T1, human transferrin receptor (hTfR); test: SPR; B = KD 1-100 nM
Method in brief: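 Recombinant hTfR dimer immobilised on Ni-NTA chip with EDC/NHS coupling; running buffer 10 mM HEPES pH 8.0, 150 mM NaCl, 0.05% Tween 20, 0.1% BSA, 1.0% DMSO. Peptides injected at 5–100 nM in single-cycle kinetics; KD from least-squares sensorgram fitting.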

[3] = target: T1, human transferrin receptor (hTfR); test: SPR; C = KD 100 nM-1 uM
Description: as §1, §2

T1 sequence (P02786 89-760 limits assumed): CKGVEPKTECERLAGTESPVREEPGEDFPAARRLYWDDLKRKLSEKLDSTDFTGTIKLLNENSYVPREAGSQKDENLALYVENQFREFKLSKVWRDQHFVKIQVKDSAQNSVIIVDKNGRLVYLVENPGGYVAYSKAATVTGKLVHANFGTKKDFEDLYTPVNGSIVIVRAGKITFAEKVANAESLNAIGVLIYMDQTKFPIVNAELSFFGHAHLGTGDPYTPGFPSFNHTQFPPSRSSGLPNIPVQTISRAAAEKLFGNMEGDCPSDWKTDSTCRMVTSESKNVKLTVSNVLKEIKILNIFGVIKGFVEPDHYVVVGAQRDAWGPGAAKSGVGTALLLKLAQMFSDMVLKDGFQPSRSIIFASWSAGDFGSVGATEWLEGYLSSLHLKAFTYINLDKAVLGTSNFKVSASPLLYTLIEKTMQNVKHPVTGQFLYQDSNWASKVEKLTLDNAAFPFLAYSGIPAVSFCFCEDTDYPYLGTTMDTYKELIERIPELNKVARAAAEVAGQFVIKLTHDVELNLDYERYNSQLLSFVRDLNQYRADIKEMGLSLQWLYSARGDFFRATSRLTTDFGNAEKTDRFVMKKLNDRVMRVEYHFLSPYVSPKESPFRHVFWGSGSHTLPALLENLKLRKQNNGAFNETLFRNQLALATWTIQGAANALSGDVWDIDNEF

A KD [1] of less than 1 nM was found for {CH2CO}-AV[NMePhe(3-Cl)]VWNY[Phe(4-OMe)]IIRRFYC-NH2 (thioether N-15; not fully specified (residue 14); also: linker PEG4c) [894_0280] in this work.

A KD [1] of less than 1 nM was found for {CH2CO}-AV[NMePhe(3-Cl)]VWNY[F4aao]IIRRF[NMeY]C-NH2 (thioether N-15; also: linker PEG4c, place not given here) [894_0392] in this work.

A KD [2] of 1 to 100 nM was found for {CH2CO}-AV[NMePhe(3-Cl)]V[Trp(1-CH2CO)]NY[F4aao]IIRRFYC-NH2 (thioether N-15; not fully specified (residue 14); also: linker PEG4c) [894_0295] in this work.

B1: 894_0251 (peptide)
peptide: {CH2CO}-AV[NMeF]V[Trp(5-Cl)]NY[Phe(4-OMe)]IIRRFYC-NH2
modifications: thioether N-15; not fully specified (residue 14); also: linker PEG4c, place not given here
A KD [1] of less than 1 nM was found for B1 in this work.

A KD [2] of 1 to 100 nM was found for Ac-AV[NMePhe(3-Cl)]V[Trp(1-CH2CO)]NY[F4aao]IIRR[Phe(3-COOH)][NMeY]C (thioether (positions not given here); not fully specified (C-terminus, bridges)) [894_0342] in this work.

A KD [2] of 1 to 100 nM was found for Ac-AV[NMePhe(3-Cl)]VWNY[3Pal]IIQQ[4Pal][NMeY]C (thioether (positions not given here); not fully specified (C-terminus, bridges)) [894_0327] in this work.

A KD [1] of less than 1 nM was found for {CH2CO}-AV[NMePhe(3-Cl)]V[Trp(1-CH2CO)]NY[F4aao]IIRRF[NMeY]C-NH2 (thioether N-15; also: linker G-de-de-de-ds-ds-KN3, attachment not given here) [894_3168] in this work.

B2: 894_0255 (peptide)
peptide: {CH2CO}-AV[NMePhe(4-F)]V[Trp(5-Cl)]NY[Phe(4-OMe)]IIRRFYC-NH2
modifications: thioether N-15; not fully specified (residue 14); also: linker PEG4c, place not given here
A KD [1] of less than 1 nM was found for B2 in this work.

B3: 894_3182 (peptide)
peptide: {CH2CO}-AV[NMePhe(3-Cl)]V[Trp(1-CH2CO)]NY[F4aao]IIRRF[NMeY]CG[PEG8][Lys(N3)]-NH2
modifications: thioether N-15
SMILES: CC[C@H](C)[C@@H]1NC(=O)[C@H](Cc2ccc(OCC(=O)O)cc2)NC(=O)[C@H](Cc2ccc(O)cc2)NC(=O)[C@H](CC(N)=O)NC(=O)[C@H](Cc2cn(CC(=O)O)c3ccccc23)NC(=O)[C@H](C(C)C)NC(=O)[C@H](Cc2cccc(Cl)c2)N(C)C(=O)[C@H](C(C)C)NC(=O)[C@H](C)NC(=O)CSC[C@@H](C(=O)NCC(=O)NCCOCCOCCOCCOCCOCCOCCOCCOCCC(=O)N[C@@H](CCCCN=[N+]=[N-])C(N)=O)NC(=O)[C@H](Cc2ccc(O)cc2)N(C)C(=O)[C@H](Cc2ccccc2)NC(=O)[C@H](CCCNC(=N)N)NC(=O)[C@H](CCCNC(=N)N)NC(=O)[C@H]([C@@H](C)CC)NC1=O
A KD [2] of 1 to 100 nM was found for B3 in this work.

A KD [1] of less than 1 nM was found for {CH2CO}-AV[NMePhe(3-Cl)]VWNY[F4aao]II[E(PEG8Me)]RF[NMeY]C-NH2 (thioether N-15; also: linker PEG4c, place not given here) [849_0397] in this work.

A KD [1] of less than 1 nM was found for {CH2CO}-AV[NMePhe(3-Cl)]V[Trp(1-CH2CO)]NY[F4aao]II[E(PEG4Me)][Nle(6-morpholino)]F[NMeY]C-NH2 (thioether N-15; also: linker PEG4c, attachment site not given here) [849_0404] in this work.

B4: 894_0254 (peptide)
peptide: {CH2CO}-AV[NMePhe(4-F)]V[Trp(5-Cl)]NYYIIRRFYC-NH2
modifications: thioether N-15; not fully specified (residue 14); also: linker PEG4c, place not given here
A KD [1] of less than 1 nM was found for B4 in this work.

B5: 894_0257 (peptide)
peptide: {CH2CO}-AV[NMePhe(4-F)]V[Trp(5-Cl)]NYYII[NMeR][dR]FYC-NH2
modifications: thioether N-15; not fully specified (residue 14); also: linker PEG4c, place not given here
A KD [3] of 100 to 1000 nM was found for B5 in this work.

A KD [1] of less than 1 nM was found for {CH2CO}-AV[NMePhe(3-Cl)]VWNY[Phe(4-OMe)]IIKRFYC-NH2 (thioether N-15; not fully specified (residue 14); also: linker PEG4c) [894_0281] in this work.

A KD [1] of less than 1 nM was found for {CH2CO}-AV[NMePhe(3-Cl)]VWNY[Phe(4-OMe)″]IIRR[4Pal][NMeY]C-NH2 (thioether N-15; also: linker PEG4c) [894_0317] in this work.

A KD [1] of less than 1 nM was found for {CH2CO}-AV[NMePhe(3-Cl)]VWNY[F4aao]II[E(NHdPEG1Me)]R[Phe(3-COOH)][NMeY]C-NH2 (thioether N-15; also: linker PEG4c, place not given here) [849_0399] in this work.

B6: 894_3200 (peptide)
peptide: AVFVWNYYIIKRYYC
modifications: 3:MeF,5:MeW,14:MeY; linker G-ds-ds-ds-ds-ds-KN3; ClAc-1/C15 thioether ring; C-term NH2
B6: binds [1].

A KD [1] of less than 1 nM was found for {CH2CO}-AV[NMePhe(3-Cl)]V[Trp(1-CH2CO)]NY[Phe(4-OMe)(3)]IERRF[NMeY]C-NH2 (thioether N-15; also: linker G-de-de-de-ds-ds-KN3, attachment not given here) [894_3167] in this work.

A KD [1] of less than 1 nM was found for {CH2CO}-AV[NMeF]V[Trp(5-Cl)]NY[Phe(4-OMe)]IIRRYYC-NH2 (thioether N-15; not fully specified (residue 14); also: linker PEG4c) [894_0289] in this work.

{CH2CO}-AV[NMePhe(3-Cl)]V[Trp(1-CH2CO)]NY[F4aao]II[Ala(1-CH2CO2H-4-piperidyl)]RF[NMeY]C-NH2 (thioether N-15; also: linker PEG4c, place not given here) [894_0386]: binds [1].

{CH2CO}-AV[NMePhe(3-Cl)]V[Trp(1-CH2CO)]NY[F4aao]II[Nle(6-morpholino)][Nle(6-morpholino)]F[NMeY]C-NH2 (thioether N-15; also: linker PEG4c, place not given here) [894_0390]: binds [1].

A KD [1] of less than 1 nM was found for {CH2CO}-AV[NMePhe(3-Cl)]VWNY[Phe(4-OMe)]IIRRYYC-NH2 (thioether N-15; not fully specified (residue 14); also: linker PEG4c) [894_0291] in this work.

B7: 894_0250 (peptide)
peptide: {CH2CO}-AV[NMeF]V[Trp(5-Cl)]NYYIIRRFYC-NH2
modifications: thioether N-15; not fully specified (residue 14); also: linker PEG4c, place not given here
A KD [1] of less than 1 nM was found for B7 in this work.

A KD [1] of less than 1 nM was found for {CH2CO}-AV[NMePhe(3-Cl)]V[Trp(1-CH2CO)]NY[Phe(4-OMe)″]IIRRF[NMeY]C-NH2 (thioether N-15; also: linker PEG4c, place not given here) [894_0391] in this work.
